Source: US20200102399A1, “Methods of Treating Peripheral T Cell Lymphoma Using Anti-CD30 Antibody Drug Conjugate Therapy” (Seattle Genetics, Inc., priority 2018, published 2020)

Tested on: newly diagnosed CD30-positive mature T- and NK-cell neoplasms, including sALCL
Test: Phase 1 study SGN35-011: brentuximab vedotin with CHOP or CHP chemotherapy
Assay type: in vivo, human
Conditions: given concomitantly with CHP
Description: The clinical safety and activity of brentuximab vedotin administered sequentially and concurrently with multiagent chemotherapy were previously evaluated in a phase 1 study in patients with newly diagnosed CD30-positive mature T- and NK-cell neoplasms, including sALCL (Study SGN35-011). This phase 1 study was implemented to determine the safety and activity of sequential and combination frontline treatment approaches of brentuximab vedotin with CHOP or CHP chemotherapy. The maximum tolerated dose of brentuximab vedotin was 1.8 mg/kg given concomitantly with CHP. At an interim analysis in this study (data presented at the T-Cell Lymphoma Forum 2012), 20 patients in this study had been treated with brentuximab vedotin 1.2 or 1.8 mg/kg given concomitantly with CHP for 6 cycles, followed by continued brentuximab vedotin every 3 weeks for up to 10 additional cycles for responding patients.

**Q.** For brentuximab vedotin, which maximum tolerated dose is on record?
**A.** 1.8 mg/kg
